Reference: paper PMC9687798, “Atypical Substrates of the Organic Cation Transporter 1” (Biomolecules, 2022)
Values joined by “and” are separate entries in the source; they are usually repeats but may differ in a detail not shown here. Identical values can stand only once.

Tests used:
[1] = molecular target: T1, human OCT1*1 (wild-type) (Homo sapiens, UniProt O15245); assay: Cellular uptake ratio, OCT1-overexpressing HEK293 cells vs empty vector; type: cell-based
T1 sequence (O15245 1-554): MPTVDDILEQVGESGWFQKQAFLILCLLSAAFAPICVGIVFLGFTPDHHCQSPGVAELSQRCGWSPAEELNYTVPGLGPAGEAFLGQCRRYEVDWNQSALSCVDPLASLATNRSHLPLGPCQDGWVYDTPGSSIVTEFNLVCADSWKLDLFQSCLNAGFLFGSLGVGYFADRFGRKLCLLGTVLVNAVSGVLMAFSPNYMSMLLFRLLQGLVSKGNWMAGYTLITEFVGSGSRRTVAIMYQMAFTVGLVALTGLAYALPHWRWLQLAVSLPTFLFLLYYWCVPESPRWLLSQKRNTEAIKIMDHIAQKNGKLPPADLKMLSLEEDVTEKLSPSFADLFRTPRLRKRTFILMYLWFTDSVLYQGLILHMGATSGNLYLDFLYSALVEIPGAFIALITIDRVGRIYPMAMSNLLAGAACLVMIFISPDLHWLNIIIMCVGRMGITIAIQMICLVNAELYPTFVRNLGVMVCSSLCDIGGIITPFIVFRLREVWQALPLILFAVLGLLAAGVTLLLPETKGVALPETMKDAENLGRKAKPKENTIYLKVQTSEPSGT
Protocol: (§1) The wild-type cell lines of OCT1 and OCT2, as well as the variant cell lines OCT1*2 and *3, were generated using the Flp-In system (Thermo Fisher Scientific, Darmstadt, Germany) as described in previous publications. The cell line overexpressing OCT3 was a kind gift from Dr. Koepsell and Dr. Gorbulev (University of Würzburg, Germany). Cells transfected with the empty pcDNA5/FRT vector were used for the transport experiments as a control cell line. All cells were cultured approximately up to passage 30.
(§2) Forty-eight hours before the transport experiments, 600,000 cells were plated on 12-well plates pre-coated with poly-D-lysine and incubated at 37 °C with 5% CO2. The prepared 12-well plate with cells was positioned on a heating plate pre-warmed to 37 °C. After removing the medium, the cells were washed with 37 °C HBSS+ (10 mM HEPES in Hank’s balanced salt solution, pH 7.4). Then, one pre-defined concentration of a substrate was added to each well. The incubation period was stopped by adding 2 mL of 4 °C HBSS+ and removing the cells from the heating plate. The cells were washed twice with 4 °C HBSS+. For cell lysis, the cells were incubated for 15 min with 500 µL of 80% acetonitrile (LGC Standards, Wesel, Germany), which contained a respective internal standard (Table 1).
(§3) For concentration-dependent transport, the cells were incubated with defined substrate concentrations (0.1, 1, 10, 30, 100, 300, 600, 1000 µM) for the respective pre-defined incubation times. […] The uptake by a transporter was normalised to the uptake by empty vector-transfected cells. […] The results of transport experiments were normalized to the total protein concentration per well. Total protein quantification was performed using a bicinchoninic acid assay with bovine serum albumin as standard.
(§4) The ratios of cellular uptake were calculated by dividing the total uptake of transporter-overexpressing cells by the total uptake into empty vector transfected cells. The concentration-dependent cellular net uptake was used for analysis of transport kinetics by subtracting for each substrate concentration the uptake of empty vector-transfected cells from the uptake of transporter-overexpressing cells. […] The intrinsic clearance Clint was expressed with the ratio of Vmax and KM.

[2] = molecular target: T2, wild-type human OCT2 (Homo sapiens, UniProt O15244); assay: Cellular uptake ratio, OCT2-overexpressing HEK293 cells vs empty vector; type: cell-based; conditions: based on ratio uptake data at 1 µM
T2 sequence (O15244 1-555): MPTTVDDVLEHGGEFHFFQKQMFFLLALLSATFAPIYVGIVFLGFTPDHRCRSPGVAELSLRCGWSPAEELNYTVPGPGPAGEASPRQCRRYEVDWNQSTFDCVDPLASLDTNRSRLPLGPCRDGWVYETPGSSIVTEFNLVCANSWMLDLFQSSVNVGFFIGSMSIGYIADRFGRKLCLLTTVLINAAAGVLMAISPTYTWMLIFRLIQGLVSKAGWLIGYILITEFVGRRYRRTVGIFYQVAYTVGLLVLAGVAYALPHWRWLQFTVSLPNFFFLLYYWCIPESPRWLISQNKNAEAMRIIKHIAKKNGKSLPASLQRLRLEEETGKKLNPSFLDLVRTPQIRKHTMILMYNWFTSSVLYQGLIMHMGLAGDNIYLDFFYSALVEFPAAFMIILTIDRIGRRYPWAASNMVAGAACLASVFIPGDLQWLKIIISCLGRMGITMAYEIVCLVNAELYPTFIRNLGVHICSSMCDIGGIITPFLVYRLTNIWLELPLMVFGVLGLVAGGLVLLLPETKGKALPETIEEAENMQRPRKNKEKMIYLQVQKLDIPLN
Protocol: as §1, §2, §3, §4

[3] = molecular target: T3, OCT3 (Homo sapiens, UniProt O75751); assay: Cellular uptake ratio, OCT3-overexpressing HEK293 cells vs empty vector; type: cell-based
T3 construct: expressed in transfected cells; host or cells: HEK293, stably transfected; gift from Dr. Koepsell and Dr. Gorbulev (University of Würzburg)
T3 sequence (O75751 1-556): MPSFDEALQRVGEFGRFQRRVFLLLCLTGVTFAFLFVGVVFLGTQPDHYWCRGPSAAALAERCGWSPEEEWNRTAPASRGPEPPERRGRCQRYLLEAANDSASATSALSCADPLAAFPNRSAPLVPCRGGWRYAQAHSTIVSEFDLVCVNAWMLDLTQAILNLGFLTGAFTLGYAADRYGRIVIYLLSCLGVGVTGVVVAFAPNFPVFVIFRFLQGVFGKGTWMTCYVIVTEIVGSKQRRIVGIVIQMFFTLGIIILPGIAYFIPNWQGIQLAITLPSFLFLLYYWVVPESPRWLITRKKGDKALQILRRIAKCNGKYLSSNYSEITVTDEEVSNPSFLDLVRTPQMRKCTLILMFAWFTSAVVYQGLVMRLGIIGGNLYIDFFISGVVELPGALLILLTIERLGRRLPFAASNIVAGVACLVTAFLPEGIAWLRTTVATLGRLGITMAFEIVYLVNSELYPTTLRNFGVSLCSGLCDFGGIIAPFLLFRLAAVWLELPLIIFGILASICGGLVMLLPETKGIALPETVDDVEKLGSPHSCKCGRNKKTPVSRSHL
Protocol: as §1, §2, §3, §4

[4] = Human pharmacokinetic background values; type: in vivo; conditions: blood, conversion of the KM of about 60 µM, read-out: blood concentration corresponding to KM
[5] = human; no reference given; cited from earlier work
[6] = molecular target: T1, human OCT1*1 (wild-type); assay: Concentration-dependent uptake (transport kinetics) in HEK293 cells overexpressing OCT1 wild-type; conditions: intrinsic clearance = ratio of Vmax and KM, OCT1 wild-type
[7] = substrate: CCCCC[C@H](O)/C=C/[C@H]1[C@H](O)CC(=O)[C@@H]1C/C=C\CCCC(=O)O; assay: cells, lysate or membranes; conditions: pH 7.4
[8] = substrate: CNS(=O)(=O)Cc1ccc2[nH]cc(CCN(C)C)c2c1; assay: cells, lysate or membranes; conditions: other: net uptake (OCT1 minus empty vector), HEK293, 0.1-1000 µM substrate, Michaelis–Menten; pH 7.4
[9] = substrate: COc1cc(Cc2cnc(N)nc2N)cc(OC)c1OC; assay: cells, lysate or membranes; conditions: other: net uptake (OCT1 minus empty vector), HEK293, 0.1-1000 µM substrate, Michaelis–Menten; pH 7.4
[10] = substrate: C[C@H]1COc2c(N3CCN(C)CC3)c(F)cc3c(=O)c(C(=O)O)cn1c23; assay: cells, lysate or membranes; conditions: other: net uptake (OCT1 minus empty vector), HEK293, 0.1-1000 µM substrate, Michaelis–Menten; pH 7.4
[11] = substrate: C[C@](N)(Cc1ccc(O)c(O)c1)C(=O)O; assay: cells, lysate or membranes; conditions: other: net uptake (OCT1 minus empty vector), HEK293, 0.1-1000 µM substrate, Michaelis–Menten; pH 7.4
[12] = substrate: C[N+]1(C)CCC[C@H]1C(=O)[O-]; assay: cells, lysate or membranes; conditions: other: net uptake (OCT1 minus empty vector), HEK293, 0.1-1000 µM substrate, Michaelis–Menten; pH 7.4
[13] = substrate: N=C(N)c1ccc(OCCCCCOc2ccc(C(=N)N)cc2)cc1; assay: cells, lysate or membranes; conditions: other: net uptake (OCT1 minus empty vector), HEK293, 0.1-1000 µM substrate, Michaelis–Menten; pH 7.4
[14] = substrate: N[C@@H](Cc1ccc(O)c(O)c1)C(=O)O; assay: cells, lysate or membranes; conditions: other: net uptake (OCT1 minus empty vector), HEK293, 0.1-1000 µM substrate, Michaelis–Menten; pH 7.4
[15] = substrate: Nc1ccn([C@@H]2CS[C@H](CO)O2)c(=O)n1; assay: cells, lysate or membranes; conditions: other: net uptake (OCT1 minus empty vector), HEK293, 0.1-1000 µM substrate, Michaelis–Menten; pH 7.4
[16] = substrate: Nc1ccn([C@H]2CC[C@@H](CO)O2)c(=O)n1; assay: cells, lysate or membranes; conditions: other: net uptake (OCT1 minus empty vector), HEK293, 0.1-1000 µM substrate, Michaelis–Menten; pH 7.4
[17] = substrate: Nc1nc(=O)n([C@@H]2CS[C@H](CO)O2)cc1F; assay: cells, lysate or membranes; conditions: other: net uptake (OCT1 minus empty vector), HEK293, 0.1-1000 µM substrate, Michaelis–Menten; pH 7.4
[18] = substrate: Nc1nc2c(ncn2COCCO)c(=O)[nH]1; assay: cells, lysate or membranes; conditions: other: net uptake (OCT1 minus empty vector), HEK293, 0.1-1000 µM substrate, Michaelis–Menten; pH 7.4
[19] = based on ratio uptake data at 1 µM
[20] = other: net uptake (OCT1 minus empty vector), HEK293, 0.1-1000 µM substrate, Michaelis–Menten

Q: Which “uptake ratio by OCT1 (normalised to empty vector)” value ([1]; 1 µM and 100 µM substance) does the source give for CNS(=O)(=O)Cc1ccc2[nH]cc(CCN(C)C)c2c1 [Sumatriptan, sumatriptan] here?
A: up to 30

Q: And the OCT1 transport category [1, 19]?
A: ++ (very good substrates of OCTs that have an intrinsic clearance >15 or show an uptake ratio >10)

Q: And the OCT2 transport category [2]?
A: ++ (very good substrates of OCTs that have an intrinsic clearance >15 or show an uptake ratio >10)

Q: And the “uptake by OCT3 (normalised to empty vector)” value ([3]; 1 µM substance)?
A: relevant uptake

Q: What about the OCT3 transport category [3, 19] of the same molecule?
A: + (good substrates of OCTs when the intrinsic clearance is between 5–15 or the ratio is 2–10)

Q: And the Km [4]?
A: ~17.8 µg/mL

Q: What about the “typical human maximum blood concentration” value [5] of the same molecule?
A: about 30 µg/L

Q: And the “Clint (±SEM)” value [6]?
A: 36.8 ± 7.32 µL/mg Protein/min

B1: human OCT1*1 (wild-type) (Homo sapiens) (protein)
chain: MPTVDDILEQVGESGWFQKQAFLILCLLSAAFAPICVGIVFLGFTPDHHCQSPGVAELSQRCGWSPAEELNYTVPGLGPAGEAFLGQCRRYEVDWNQSALSCVDPLASLATNRSHLPLGPCQDGWVYDTPGSSIVTEFNLVCADSWKLDLFQSCLNAGFLFGSLGVGYFADRFGRKLCLLGTVLVNAVSGVLMAFSPNYMSMLLFRLLQGLVSKGNWMAGYTLITEFVGSGSRRTVAIMYQMAFTVGLVALTGLAYALPHWRWLQLAVSLPTFLFLLYYWCVPESPRWLLSQKRNTEAIKIMDHIAQKNGKLPPADLKMLSLEEDVTEKLSPSFADLFRTPRLRKRTFILMYLWFTDSVLYQGLILHMGATSGNLYLDFLYSALVEIPGAFIALITIDRVGRIYPMAMSNLLAGAACLVMIFISPDLHWLNIIIMCVGRMGITIAIQMICLVNAELYPTFVRNLGVMVCSSLCDIGGIITPFIVFRLREVWQALPLILFAVLGLLAAGVTLLLPETKGVALPETMKDAENLGRKAKPKENTIYLKVQTSEPSGT
Q: Which Km ([7]; other: OCT1 wild-type, rounded in discussion) does the source give for B1 here?
A: 1000 µM

Q: What about the Km [7, 20] of the same molecule?
A: 1177 ± 744 µM

Q: What about the Vmax [7, 20] of the same molecule?
A: 0.00412 µmol/min/mg

Q: What about the Vmax/Km [7, 20] of the same molecule?
A: 3.5 µL/min/mg

Q: What about the Km [8] of the same molecule?
A: 60 µM and 58.9 ± 5.1 µM

Q: And the Vmax [8]?
A: 0.00217 µmol/min/mg

Q: What about the Vmax/Km [8] of the same molecule?
A: 36.8 µL/min/mg

Q: And the Km [9]?
A: 4.78 ± 1.24 µM

Q: What about the Km [10] of the same molecule?
A: 3326 ± 1458 µM

Q: What about the Km [11] of the same molecule?
A: 647 ± 335.6 µM

Q: What about the Vmax [11] of the same molecule?
A: 0.00384 µmol/min/mg

Q: And the Vmax/Km [11]?
A: 5.94 µL/min/mg

Q: And the Km [12]?
A: 881 ± 910 µM

Q: And the Km [13]?
A: 124 ± 136 µM

Q: What about the Km [14] of the same molecule?
A: 363 ± 163 µM

Q: And the Km [15]?
A: 232 ± 43.0 µM

Q: What about the Km [16] of the same molecule?
A: 1194 ± 193 µM

Q: What about the Vmax [16] of the same molecule?
A: 0.00307 µmol/min/mg

Q: And the Vmax/Km [16]?
A: 2.57 µL/min/mg

Q: And the Km [17]?
A: 1123 ± 335 µM

Q: And the Vmax [17]?
A: 0.0069 µmol/min/mg

Q: And the Vmax/Km [17]?
A: 6.15 µL/min/mg

Q: What about the Km [18] of the same molecule?
A: 142 ± 189 µM
